Source: the supplement of paper PMC9112550, “Optimization of the antimicrobial peptide Bac7 by deep mutational scanning” (BMC Biology, 2022)

Tested on: Escherichia coli TOP10
Experiment: shrunken log2 fold change of peptide-encoding DNA abundance (4.5 h post-induction vs induction); higher = less antimicrobial activity (less host growth inhibition)
Details: time post-induction: 4.5 h; library: site-saturation at positions 5, 18, 19, 20
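Further: peptides expressed intracellularly from a pBAD plasmid library in pooled LB shake-flask culture, induced with 0.3% L-arabinose, DNA abundance read by NGS, three biological replicates, DESeq2 with apeglm shrinkage.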

| Sequence | shrunken log2 fold change |
| --- | --- |
| RRIRERPPRLPRPRPRPGRCPRP | 0.0675 |
| RRIRDRPPRLPRPRPRPCPPPRP | -0.249 |
| RRIRIRPPRLPRPRPRPLMRPRP | 0.466 |
| RRIRDRPPRLPRPRPRPDCFPRP | 1.04 |
| RRIRIRPPRLPRPRPRPQKEPRP | -0.0177 |
| RRIRARPPRLPRPRPRPPTSPRP | 0.525 |
| RRIRRRPPRLPRPRPRPHTWPRP | 0.0615 |
| RRIRFRPPRLPRPRPRPWMMPRP | -0.897 |
| RRIRLRPPRLPRPRPRPYRMPRP | -1.54 |
| RRIRHRPPRLPRPRPRPPHWPRP | 0.375 |
| RRIRRRPPRLPRPRPRPGGKPRP | 0.0881 |
| RRIRARPPRLPRPRPRPKWGPRP | 0.418 |
| RRIRSRPPRLPRPRPRPVSCPRP | -0.00594 |
| RRIRNRPPRLPRPRPRPGFNPRP | -0.207 |
| RRIRVRPPRLPRPRPRPSSQPRP | -0.0546 |
| RRIRNRPPRLPRPRPRPINNPRP | -0.652 |
| RRIRYRPPRLPRPRPRPGWKPRP | 0.00711 |
| RRIRERPPRLPRPRPRPMKGPRP | -0.0658 |
| RRIRSRPPRLPRPRPRPLMGPRP | -0.271 |
| RRIRDRPPRLPRPRPRPRWYPRP | -0.0526 |
| RRIRGRPPRLPRPRPRPEIYPRP | 0.26 |
| RRIRWRPPRLPRPRPRPVKHPRP | 0.0838 |
| RRIRRRPPRLPRPRPRPCRTPRP | 0.173 |
| RRIRKRPPRLPRPRPRPEIVPRP | 1.08 |
| RRIRDRPPRLPRPRPRPYMNPRP | -0.665 |

| Sequence | shrunken log2 fold change |
| --- | --- |
| RRIRDRPPRLPRPRPRPIPFPRP | -0.306 |
| RRIRMRPPRLPRPRPRPWFDPRP | 0.00362 |
| RRIRIRPPRLPRPRPRPACWPRP | 0.222 |
| RRIRRRPPRLPRPRPRPPSEPRP | 0.974 |
| RRIRCRPPRLPRPRPRPDLAPRP | 0.102 |
| RRIRSRPPRLPRPRPRPICPPRP | -0.055 |
| RRIRGRPPRLPRPRPRPCNQPRP | -0.174 |
| RRIRQRPPRLPRPRPRPCSNPRP | -0.174 |
| RRIRGRPPRLPRPRPRPRSRPRP | 0.368 |
| RRIRSRPPRLPRPRPRPLAEPRP | 0.502 |
| RRIRYRPPRLPRPRPRPDHKPRP | -0.308 |
| RRIRTRPPRLPRPRPRPMAIPRP | -0.00284 |
| RRIRFRPPRLPRPRPRPRYNPRP | -0.323 |
| RRIRPRPPRLPRPRPRPEIFPRP | 0.137 |
| RRIRERPPRLPRPRPRPIYSPRP | -0.413 |
| RRIRRRPPRLPRPRPRPPQNPRP | 1.4 |
| RRIRRRPPRLPRPRPRPIFDPRP | 0.369 |
| RRIRLRPPRLPRPRPRPFTFPRP | 0.0545 |
| RRIRFRPPRLPRPRPRPLMTPRP | 0.189 |
| RRIRMRPPRLPRPRPRPMMTPRP | 0.141 |
| RRIRSRPPRLPRPRPRPWWPPRP | 0.0626 |
| RRIRQRPPRLPRPRPRPMDTPRP | -0.031 |
| RRIRYRPPRLPRPRPRPSFCPRP | -0.793 |
| RRIRTRPPRLPRPRPRPGNRPRP | 0.192 |
| RRIRKRPPRLPRPRPRPWLAPRP | 0.201 |

| Sequence | shrunken log2 fold change |
| --- | --- |
| RRIRHRPPRLPRPRPRPMPKPRP | 0.193 |
| RRIRKRPPRLPRPRPRPNMGPRP | -0.215 |
| RRIRFRPPRLPRPRPRPAPDPRP | 0.323 |
| RRIRLRPPRLPRPRPRPGREPRP | 0.231 |
| RRIRERPPRLPRPRPRPKNGPRP | -0.0133 |
| RRIRPRPPRLPRPRPRPLPLPRP | -0.128 |
| RRIRQRPPRLPRPRPRPVINPRP | -0.102 |
| RRIRARPPRLPRPRPRPFLLPRP | -0.223 |
| RRIRMRPPRLPRPRPRPSRIPRP | 0.0606 |
| RRIRHRPPRLPRPRPRPPKPPRP | 0.116 |
| RRIRSRPPRLPRPRPRPAEWPRP | 1.02 |
| RRIRDRPPRLPRPRPRPDAVPRP | 0.585 |
| RRIRVRPPRLPRPRPRPLHMPRP | -0.17 |
| RRIRTRPPRLPRPRPRPMDHPRP | -0.31 |
| RRIRLRPPRLPRPRPRPCGLPRP | 0.142 |
| RRIRDRPPRLPRPRPRPIYDPRP | -0.0423 |
| RRIRGRPPRLPRPRPRPNSLPRP | 0.271 |
| RRIRKRPPRLPRPRPRPEDSPRP | 1.28 |
| RRIRYRPPRLPRPRPRPATQPRP | -0.163 |
| RRIRFRPPRLPRPRPRPDHSPRP | -0.0664 |
| RRIRSRPPRLPRPRPRPRANPRP | 0.174 |
| RRIRCRPPRLPRPRPRPLCIPRP | -0.353 |
| RRIRIRPPRLPRPRPRPEKPPRP | -0.0144 |
| RRIRDRPPRLPRPRPRPWLKPRP | -0.00783 |
| RRIRSRPPRLPRPRPRPHTCPRP | -0.215 |
